The record followed here is publication PMC12020772 (Journal for Immunotherapy of Cancer, 2025).

Test [1] concerns the target MICA alpha-3 domain of MICA*001 (Homo sapiens, allele MICA*001, UniProt Q29983, strain). Nature of the test: crystal structure.
For test [2], the target named is MICA*002 extracellular domain (Homo sapiens, allele MICA*002 (stand-in …, UniProt Q29983)). Nature of the test: ELISA. On the technique in general: An ELISA detects its analyte on a solid surface through an enzyme-linked reagent.
In test [3] the target is MICA*001 extracellular domain (Homo sapiens, allele MICA*001, UniProt Q29983). Nature of the test: ELISA.
For test [4], the target named is MICB*004 extracellular domain (Homo sapiens, allele MICB*004, UniProt Q29980). Nature of the test: BLI. For orientation: BLI is a label-free optical method that tracks binding on a fibre tip over time.

B1: Fab fragment of CLN-619 (Fab, V domains shown)
VH: QVQLVESGGGLVKPGGSLRLSCAASGFTFSNYAMSWIRQAPGKGLEWVSYISPGGDYIYYADSVKGRFTISRDNAKNSLYLQMNSLRAEDTAVYYCTTDRRHYGSYAMDYWGQGTLVTVSS
VL: DIVMTQSPLSLPVTPGEPASISCRSSKSLLHSNLNTYLYWFLQKPGQSPQILIYRMSNLASGVPDRFSGSGSGTAFTLKISRVEAEDVGVYYCMQHLEYPFTFGPGTKLEIK
B1: the binding result in test [1] was “binds”.

B2: CLN-619, humanized IgG1 monoclonal antibody against MICA/B (antibody, V domains shown)
VH: B1 VH
VL: B1 VL
For B2, the binding result in test [2] and in test [3] was “binds” each time. The molecule further gave a Kd in test [4] of 11.4 nM.

A word on the Kd: it is the constant that tells how readily two partners part at equilibrium. Low readings indicate tighter binding, high ones weaker binding.
